According to US20250313625A1 (ELPISCIENCE SUZHOU BIOPHARMA, published 2025):
Residue numbers refer to the chain shown, from its start.

T1: human LAG3, full length, stably expressed on cells (human, UniProt P18627 23-525)
T1 construct: whole, on cells; also called CHOK1-human LAG3
T1 sequence (looked up): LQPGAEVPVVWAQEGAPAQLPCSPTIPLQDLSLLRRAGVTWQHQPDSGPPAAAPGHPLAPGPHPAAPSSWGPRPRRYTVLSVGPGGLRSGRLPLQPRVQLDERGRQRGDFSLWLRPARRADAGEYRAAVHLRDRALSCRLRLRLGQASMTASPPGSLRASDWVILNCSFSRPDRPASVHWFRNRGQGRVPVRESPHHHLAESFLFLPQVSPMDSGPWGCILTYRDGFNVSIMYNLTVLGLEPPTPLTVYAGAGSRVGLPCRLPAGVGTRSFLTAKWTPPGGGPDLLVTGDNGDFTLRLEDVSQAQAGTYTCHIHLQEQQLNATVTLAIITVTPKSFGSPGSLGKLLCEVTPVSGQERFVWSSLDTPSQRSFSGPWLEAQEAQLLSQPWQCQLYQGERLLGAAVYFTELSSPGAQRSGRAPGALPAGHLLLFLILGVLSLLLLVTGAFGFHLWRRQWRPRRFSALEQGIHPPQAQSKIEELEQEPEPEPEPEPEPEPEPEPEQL

T2: hFc tagged human LAG3 ECD recombinant protein (human, UniProt P18627 23-450)
T2 construct: range 23-450; also called biotin labelled hFc tagged human LAG3 ECD; not shown: human IgG Fc tag
T2 sequence (looked up): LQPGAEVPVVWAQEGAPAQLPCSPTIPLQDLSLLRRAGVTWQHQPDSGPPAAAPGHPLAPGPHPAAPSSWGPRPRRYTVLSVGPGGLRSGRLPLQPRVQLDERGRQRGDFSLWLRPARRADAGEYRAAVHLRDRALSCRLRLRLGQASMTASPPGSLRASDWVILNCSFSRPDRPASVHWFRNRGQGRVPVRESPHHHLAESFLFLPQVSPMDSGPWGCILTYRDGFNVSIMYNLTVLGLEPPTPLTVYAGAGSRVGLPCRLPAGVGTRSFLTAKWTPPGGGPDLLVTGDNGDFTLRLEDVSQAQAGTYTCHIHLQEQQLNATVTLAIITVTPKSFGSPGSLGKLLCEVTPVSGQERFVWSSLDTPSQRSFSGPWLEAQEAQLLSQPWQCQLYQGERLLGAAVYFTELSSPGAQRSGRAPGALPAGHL

T3: hFc tagged human LAG3 D1-D2 recombinant protein (human, UniProt P18627 23-261)
T3 construct: range 23-261; generated by Chempartner; also called hLAG3 D1-D2; not shown: human IgG Fc tag
T3 sequence (looked up): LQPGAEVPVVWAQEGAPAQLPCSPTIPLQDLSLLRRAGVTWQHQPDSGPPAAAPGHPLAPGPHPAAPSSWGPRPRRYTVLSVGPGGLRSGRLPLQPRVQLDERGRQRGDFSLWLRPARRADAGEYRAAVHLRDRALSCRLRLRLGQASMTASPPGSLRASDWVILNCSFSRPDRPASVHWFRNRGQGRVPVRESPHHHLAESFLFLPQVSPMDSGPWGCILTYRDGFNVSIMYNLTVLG

T4: mouse LAG3, full length, stably expressed on CHOK1 cells (mouse, UniProt Q61790 24-521)
T4 construct: whole, on cells
T4 sequence (looked up): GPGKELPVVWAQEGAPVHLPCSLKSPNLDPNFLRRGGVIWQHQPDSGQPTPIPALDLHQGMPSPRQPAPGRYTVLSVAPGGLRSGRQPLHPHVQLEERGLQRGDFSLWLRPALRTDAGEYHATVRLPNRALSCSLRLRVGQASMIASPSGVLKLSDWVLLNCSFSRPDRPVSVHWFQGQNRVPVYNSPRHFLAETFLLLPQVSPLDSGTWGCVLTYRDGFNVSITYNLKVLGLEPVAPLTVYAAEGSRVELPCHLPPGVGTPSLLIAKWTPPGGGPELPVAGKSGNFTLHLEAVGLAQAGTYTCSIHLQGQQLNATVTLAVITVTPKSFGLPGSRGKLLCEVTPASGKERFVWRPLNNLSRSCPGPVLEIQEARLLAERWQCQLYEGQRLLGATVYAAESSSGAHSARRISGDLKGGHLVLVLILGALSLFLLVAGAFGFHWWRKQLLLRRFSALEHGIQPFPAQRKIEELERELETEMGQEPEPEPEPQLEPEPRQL

B1: Antibody 035 (antibody, V domains shown)
VH: QVQLQQSGAELARPGASVKLSCKASGYSFTSYGINWVKQRTGQGLEWIGEIYPRSGNTYYNEKFKDKATLTADKSSSTAYMELRSLTSEDSAVYFCARGGTYDGYYYAMDFWGQGTSVTVSS
VL: DIVLTQSPASLAVSLGQRATISCRASESVDNFGSSFLHWYQQKPGQAPKLLIYRASNLESGIPARFSGSGSRTDFTLTINPVETDDVATYYCQQVNKDPRTFGGGTKLEIK
notes: mouse hybridoma antibody
B2: Antibody 057 (antibody, V domains shown)
VH: B1 VH with Y27F, F64L, D66G, K67E, K74R, F111Y
VL: B1 VL with D1N, L37M, S67G, R72G, N80D
notes: mouse hybridoma antibody
B3: Antibody 047 (antibody, V domains shown)
VH: B1 VH with I34V, K63R, K65G, L83I, F111Y
VL: B1 VL with L37M
notes: mouse hybridoma antibody
B4: Antibody 038 (antibody, V domains shown)
VH: DVQVQESGPGLVKPSQSLSLTCSVTGYSITSGYYWNWIRQFPGNKLEWMGYISYDGSNEYNLSLKNRLSITRDTSKNQFFLKLNSVTTEDTATYYCAREEDGYYGGMDYWGQGTSVTVSS
VL: DIVMTQSHKFMSASVGVRVSITCRASQDVDTAVAWYQQKPGQSPKLLIYWASTRHTGVPDRFTGSGSGTDFTLTISNVQSEDLADYFCQQYSSYPYTFGGGTKLEIK
notes: mouse hybridoma antibody
B5: Antibody 033 (antibody, V domains shown)
VH: EVQLQQSGAELVRPGASVKLSCTASDFNIKDDYIHWVKQRPEQGLEWIGWIDLENGDTEYASKFQGKATITADTSSNTAYLQLSSLTSEDTAVYYCTTKGSHWGQGTLVTVSA
VL: DVVMTQIPLSLPVSLGDQASISCRSSQSLVYSNGNTYLNWYLQKPGQSPKLLIHKVSNRFSGVPDRFSGSGSGTDFTLKISRVEAEDLGVYFCSQSTHVPYTFGGGTKLEIR
notes: mouse hybridoma antibody
B6: Antibody 024 (antibody, V domains shown)
VH: EVQLQQSGPELVKPGASVKISCKASGYTFTDYYMNWVKQSHGKRLEWIGDIDPNNGGTSYNQKFKGKATLTVDKSSSSAYMDLRSLTSEDSAVYYCARAGSYYYGSSYVEYFDVWGTGTTVTVSS
VL: DIQMTQSPASLSASVGETVTITCRASGNIHNYLAWYQQKQGASPQLLVYNAKTLADGVPSRFSGSGSGTEFSLKINSLQPEDFGNYYCQHFWNTPYTFGGGTKLEIK
notes: mouse hybridoma antibody
B7: Antibody 023 (antibody, V domains shown)
VH: QIQLVQSGPVLKKPGETVKISCKASGYTFTESPMNWVKQAPGRGFKWMGMIYTDTGEPTYAEEFKGRFAFSLETSASTAYLQINNLKSEDTATYFCVSDYGSILYWYFDVWGTGTTVTVSS
VL: DIVMTQSHKFMSTSVGDRVSITCKASQDVSTAVAWYQQTPGQSPKLLIYSASYRYTGVPDRFTGSGSGTDFTFTISSVQAEDLAVYYCQQHYNSPPTFGAGTKLELK
notes: mouse hybridoma antibody
B8: Antibody 029 (antibody, V domains shown)
VH: DVKLVESGEDLVKPGGSLKLSCAASGFTFSSYAMSWVRQTPEKRLEWVAYVTSGGDYIYYADTVKGRFTISRDDVRNTLYLQMSSLKSEDTAMYYCTRVAYDYEWYFDVWGTGAPVTVSS
VL: B7 VL with S30T, T39K, P59S, V85L, Y92D, N93S, P96W, A100G, L106I
notes: mouse hybridoma antibody
B9: Antibody 027 (antibody, V domains shown)
VH: EVKILQSGGGLVQPGGSLKLSCAASGIDFSRYWMSWVRRTPGKGLEWIGEINPDSSTINYAPSLKDKFIISRDNAKNTLYLQMSKVRSEDTALYYCARLGIIPTYHYGSSGYYYAMDYWGQGTSVTVSS
VL: DVLMTQTPLSLPVSLGDRASISCRSSQTIVHGNGHTSLEWYLQKPGQSPQLLIYKVSNRFSGVPDRFSASGSGTDFTLTISRVEAEDLGVYYCFQVSHVPYTFGGGTKLEIK
notes: mouse hybridoma antibody

Experiments:
[1] = biological target: T1, human LAG3, full length, stably …; assay: FACS on 293F-human LAG3 cells
Method: (§1) Briefly the antibodies were incubated with 2×10⁵ target cells at 4° C. for 1 hour. After washing, fluorescence labeled anti-mouse IgG 2nd antibody (Life Technologies) was added and incubated at 4° C. for 1 hour. Geometric median fluorescence intensity (MFI) was detected and EC₅₀ was calculated using GraphPad Prism9.0.

[2] = biological target: T2, hFc tagged human LAG3 ECD recombinant …; assay: competitive ELISA: excess competitor, biotin hFc-LAG3 ECD, coated BMS-986016
Method: (§2) Competitive ELISA assay was used for epitope binning of the purified hybridoma antibodies. […] After washing, HRP labeled anti-streptavidin (SA) 2nd antibody (Sigma) was added and incubated at 37° C. for 1 hour. Then, 100 μl/well of TMB solution (Biotechnology) was added. After incubation for 15 minutes at room temperature, the reaction was stopped by the addition of 50 μl of 1N HCl. OD 450 nm was read. Competition ratio was calculated.

[3] = biological target: T3, hFc tagged human LAG3 D1-D2 recombinant …; assay: ELISA, coated hFc-hLAG3 D1-D2
Method: Binding activity of the purified hybridoma antibodies against human LAG3 was detected by ELISA assay using hFc tagged human LAG3 D1-D2 recombinant protein. Briefly the antibodies were incubated with ELISA microplate coated antigens at 37° C. for 1 hour. After washing, horseradish peroxidase (HRP) labeled anti-human IgG 2nd Ab (Sigma) was added and incubated at 37° C. for 1 hour. Then, 100 μl/well of TMB solution (Biotechnology) was added. After incubation for 15 minutes at room temperature, the reaction was stopped by the addition of 50 μl of 1N HCl. OD 450 nm was read and EC₅₀ was calculated using GraphPad Prism9.0.

[4] = biological target: T4, mouse LAG3, full length, stably …; assay: FACS on CHOK1 cells expressing mouse LAG3
Method: as §1

[5] = biological target: T5, cyno LAG3, full length, stably expressed on 293F cells (cyno); assay: FACS on 293F-cyno LAG3 cells, 20 nM antibody
T5 construct: whole, on cells
Method: as §1

[6] = biological target: T2, hFc tagged human LAG3 ECD recombinant …; assay: competitive FACS: hFc-LAG3 ECD binding to Raji cells (MHC II)
Method: Competitive FACS assay was used to determine whether the purified hybridoma antibodies can block LAG3 and MHC II interaction. […] After washing, dye labeled anti-human Fc 2nd antibody (Sigma) was added and incubated at 37° C. for 1 hour. Fluorescence intensity was detected.

[7] = biological target: T2, hFc tagged human LAG3 ECD recombinant …; assay: competitive ELISA: excess competitor, biotin hFc-LAG3 ECD, coated BAP-050
Method: as §2

Binder | EC50 [1] | % competition [2] | EC50 [3] | binding result [4] | MFI at 20 nM [5] | IC50 [6] | TOP blocking (%) [6] | % competition [7]
B1 | 0.66 nM | 21.7% | 0.06 nM | no binding | 155 MFI | 5 nM | 99.2% | 91.9%
B2 | 1.04 nM | 29.3% | 0.02 nM | no binding | 83.4 MFI | 5.1 nM | 87.6% | 87.7%
B3 | 1.14 nM | 8.9% | 0.04 nM | no binding | 129 MFI | 7.7 nM | 82.7% | 87.4%
B4 | 1.12 nM | 33.5% | 0.07 nM | no binding | 142 MFI | 4.2 nM | 100% | 6.4%
B5 | 2.33 nM | 92.5% | 0.07 nM | no binding | 83.4 MFI | 4.8 nM | 98.8% | 3.8%
B6 | 2.04 nM | 73% | 0.05 nM | no binding | 154 MFI | 5.5 nM | 81% | -0.5%
B7 | 2.65 nM | 43.7% | 0.05 nM | no binding | 125 MFI | 4.9 nM | 84.2% | -2.7%
B8 | 4.58 nM | 20.3% | 0.06 nM | no binding | 35.6 MFI | 4.6 nM | 90.7% | 23.5%
B9 | 2.38 nM | 7.2% | 0.05 nM | no binding | 132 MFI | 5.4 nM | 97.2% | 85.1%
